The test deals with Tie-2 tyrosine kinase receptor on HUVECs (human) (UniProt Q02763). The test is described as follows: cell-based or functional assay.
Sequence of UniProt Q02763 (Q02763 23-1124): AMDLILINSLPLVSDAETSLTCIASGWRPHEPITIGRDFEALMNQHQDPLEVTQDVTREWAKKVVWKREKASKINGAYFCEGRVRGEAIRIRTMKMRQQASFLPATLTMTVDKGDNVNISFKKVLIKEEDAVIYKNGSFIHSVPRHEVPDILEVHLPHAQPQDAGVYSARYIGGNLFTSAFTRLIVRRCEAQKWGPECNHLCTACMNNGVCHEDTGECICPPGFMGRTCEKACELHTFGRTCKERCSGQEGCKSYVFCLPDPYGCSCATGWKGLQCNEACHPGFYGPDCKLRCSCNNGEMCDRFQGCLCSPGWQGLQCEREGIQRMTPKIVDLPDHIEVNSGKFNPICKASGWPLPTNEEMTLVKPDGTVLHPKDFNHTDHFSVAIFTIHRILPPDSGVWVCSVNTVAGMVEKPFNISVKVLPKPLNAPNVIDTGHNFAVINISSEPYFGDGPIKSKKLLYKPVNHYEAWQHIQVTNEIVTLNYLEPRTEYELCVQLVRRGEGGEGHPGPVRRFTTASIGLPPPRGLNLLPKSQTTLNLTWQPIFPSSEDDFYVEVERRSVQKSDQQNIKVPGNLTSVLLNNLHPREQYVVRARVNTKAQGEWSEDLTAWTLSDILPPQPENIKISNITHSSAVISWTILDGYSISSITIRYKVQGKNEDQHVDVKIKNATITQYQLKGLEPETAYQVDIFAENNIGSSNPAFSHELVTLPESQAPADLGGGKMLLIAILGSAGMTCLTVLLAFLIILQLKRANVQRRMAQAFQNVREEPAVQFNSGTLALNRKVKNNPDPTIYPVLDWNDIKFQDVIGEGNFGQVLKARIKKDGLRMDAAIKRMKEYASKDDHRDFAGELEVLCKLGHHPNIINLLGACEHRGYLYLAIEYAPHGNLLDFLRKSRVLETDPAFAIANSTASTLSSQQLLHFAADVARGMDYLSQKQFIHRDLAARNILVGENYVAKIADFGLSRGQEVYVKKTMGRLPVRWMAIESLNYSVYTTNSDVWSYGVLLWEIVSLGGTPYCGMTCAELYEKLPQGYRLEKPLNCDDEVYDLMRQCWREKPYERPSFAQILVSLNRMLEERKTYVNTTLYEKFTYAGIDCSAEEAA

Turning to “Angiopoietin-1 secreted by HT29 human colon cancer cells stably transfected with full-length Ang-1 cDNA in pcDNA3.1 (from UniProt Q15389 16-498) (ligand)”, the Tie-2 phosphorylation in HUVECs after 48 h transwell co-culture (Tie-2 immunoprecipitation, anti-phosphotyrosine Western blot, densitometry), versus co-culture with pcDNA-transfected HT29 cells was 2 fold.

For the origin of these results see patent US20030220250A1.
